# Experimental data reported in IntAct's records for PubMed 24240280.
# B1: Synaptic vesicle glycoprotein 2C (Homo sapiens), Q496J9 (parent)
# chain: MEDSYKDRTSLMKGAKDIAREVKKQTVKKVNQAVDRAQDEYTQRSYSRFQDEEDDDDYYPAGETYNGEANDDEGSSEATEGHDEDDEIYEGEYQGIPSMNQAKDSIVSVGQPKGDEYKDRRELESERRADEEELAQQYELIIQECGHGRFQWALFFVLGMALMADGVEVFVVGFVLPSAETDLCIPNSGSGWLGSIVYLGMMVGAFFWGGLADKVGRKQSLLICMSVNGFFAFLSSFVQGYGFFLFCRLLSGFGIGGAIPTVFSYFAEVLAREKRGEHLSWLCMFWMIGGIYASAMAWAIIPHYGWSFSMGSAYQFHSWRVFVIVCALPCVSSVVALTFMPESPRFLLEVGKHDEAWMILKLIHDTNMRARGQPEKVFTVNKIKTPKQIDELIEIESDTGTWYRRCFVRIRTELYGIWLTFMRCFNYPVRDNTIKLTIVWFTLSFGYYGLSVWFPDVIKPLQSDEYALLTRNVERDKYANFTINFTMENQIHTGMEYDNGRFIGVKFKSVTFKDSVFKSCTFEDVTSVNTYFKNCTFIDTVFDNTDFEPYKFIDSEFKNCSFFHNKTGCQITFDDDYSAYWIYFVNFLGTLAVLPGNIVSALLMDRIGRLTMLGGSMVLSGISCFFLWFGTSESMMIGMLCLYNGLTISAWNSLDVVTVELYPTDRRATGFGFLNALCKAAAVLGNLIFGSLVSITKSIPILLASTVLVCGGLVGLCLPDTRTQVLM
# Variants of: B1
# Settings: with bxa1_clobo botA
row,Variant,effect of a mutation on the interaction
1,F563A,disrupting interaction strength
